Data on 2 sequences can be found in PMC3478855.

What all share (assay): SPR
(In general: SPR reads the build-up and loss of mass on a sensor chip optically.)

Data set [1] concerns inactivated AIV H5N1 whole virus (HA on virion) (Influenza A virus H5N1). The settings on record: biotin, PBS 10 mM pH 7.4, temperature not stated.
Data set [2] deals with inactivated AIV H5N2 whole virus (Influenza A virus H5N2). To be noted: biotin, PBS 10 mM pH 7.4, temperature not stated.
Data set [3] relates to inactivated AIV H9N2 whole virus (Influenza A virus H9N2). To be noted: biotin, PBS 10 mM pH 7.4, temperature not stated.
Data set [4] concerns inactivated AIV H7N2 whole virus (Influenza A virus H7N2). To be noted: biotin, PBS 10 mM pH 7.4, temperature not stated.
The subject of data set [5] is inactivated AIV H1N1 whole virus (Influenza A virus H1N1). To be noted: biotin, PBS 10 mM pH 7.4, temperature not stated.
The test system of data set [6] is AIV H5N9 whole virus (Influenza A virus H5N9). The settings on record: biotin, PBS 10 mM pH 7.4, temperature not stated.
The test system of data set [7] is inactivated AIV H2N2 whole virus (Influenza A virus H2N2). The settings on record: biotin, PBS 10 mM pH 7.4, temperature not stated.
Data set [8] relates to hemagglutinin (HA) of AIV H5N1, purified (Influenza A virus H5N1). The settings on record: PBS 10 mM pH 7.4, temperature not stated; cited from earlier work.

In the case of “GTGTGCATGGATAGCACGTAACGGTGTAGTAGATACGTGCGGGTAGGAAGAAAGGGAAATAGTTGTCCTGTTG [H5N1 DNA aptamer, biotinylated (sensor)]”, the binding signal was 262 RI 10^-6 in data set [1]; 10 RI 10^-6 in data set [2]; 2 RI 10^-6 in data set [3]; 7 RI 10^-6 in data set [4]; -4 RI 10^-6 in data set [5]; 3 RI 10^-6 in data set [6]. In addition, the binding signal in data set [7] is -1 RI 10^-6.
As usually defined, the Kd is the concentration at which binding is half-saturated. As for “GTGTGCATGGATAGCACGTAACGGTGTAGTAGATACGTGCGGGTAGGAAGAAAGGGAAATAGTTGTCCTGTTG [H5N1 DNA aptamer, best candidate (previous study)]”, in data set [8], the Kd is 4.65 nM.
